Source: the supplement of paper PMC11908140

B1: library; numbered along this chain (parent)
chain: MRKPRAAVGSGHRKQAASQEGRQKHAKNNSQAKPSACDGLARQPEEVVLQASVSSYHLFRDVAEVTAFRGSLLSWYDQEKRDLPWRRRAEDEMDLDRRAYAVWVSEVMLQQTQVATVINYYTGWMQKWPTLQDLASASLEEVNQLWAGLGYYSRGRRLQEGARKVVEELGGHMPRTAETLQQLLPGVGRYTAGAIASIAFGQATGVVDGNVARVLCRVRAIGADPSSTLVSQQLWGLAQQLVDPARPGDFNQAAMELGATVCTPQRPLCSQCPVESLCRARQRVEQEQLLASGSLSGSPDVEECAPNTGQCHLCLPPSEPWDQTLGVVNFPRKASRKPPREESSATCVLEQPGALGAQILLVQRPNSGLLAGLWEFPSVTWEPSEQLQRKALLQELQRWAGPLPATHLRHLGEVVHTFSHIKLTYQVYGLALEGQTPVTTVPPGARWLTQEEFHTAAVSTAMKKVFRVYQGQQPGTCMGSKRSQVSSPCSRKKPRMGQQVLDNFFRSHISTDAHSLNSAAQ

Variants of: B1
Experiment: 8OG:A repair function score (normalized; synonymous = 0, nonsense = -1) (normalized log-likelihood score); higher = more repair activity (WT-like)
Settings: with 8OG:A DNA repair reporter (GFP) in HEK-293 MUTYH KO cells
Procedure, shortened: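 Lentiviral MUTYH cDNA NNN codon-scan libraries were expressed in MUTYH knockout HEK-293 cells with 10 pg/ml doxycycline, and the cells received an 8OG:A GFP repair reporter together with mCherry. At 72 h, viable mCherry+ cells went into GFP+ (repair) or GFP− bins, three replicates per tile, before tile amplicons were sequenced. A repair function score was then built from per-tile Rosace fitness scores, anchored on the synonymous and nonsense distributions. Synonymous medians sat at 0 and nonsense at -1, and variants under 300 counts per million at the start were left out.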
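Note: cells sorted at 72 h after reporter transfection.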

| Variant | 8OG:A repair function score |
| --- | --- |
| MRKPRAAVGSGHRKQAASQEGRQKHAKNNSQAKPSACDGLARQPEEVVLQASVSSYHLFRDVAEVTAFRGSLLSWYDQEKRDLPWRRRAEDEMDLDRRAYAVWVSEVMLQQTQVATVINYYTGWMQKWPTLQDLASASLEEVNQLWAGLGYYSRGRRLQEGARKVVEELGGHMPRTAETLQQLLPGVGRYTAGAIASIAFTQATGVVDGNVARVLCRVRAIGADPSSTLVSQQLWGLAQQLVDPARPGDFNQAAMELGATVCTPQRPLCSQCPVESLCRARQRVEQEQLLASGSLSGSPDVEECAPNTGQCHLCLPPSEPWDQTLGVVNFPRKASRKPPREESSATCVLEQPGALGAQILLVQRPNSGLLAGLWEFPSVTWEPSEQLQRKALLQELQRWAGPLPATHLRHLGEVVHTFSHIKLTYQVYGLALEGQTPVTTVPPGARWLTQEEFHTAAVSTAMKKVFRVYQGQQPGTCMGSKRSQVSSPCSRKKPRMGQQVLDNFFRSHISTDAHSLNSAAQ [G201T] | -0.23 |
| MRKPRAAVGSGHRKQAASQEGRQKHAKNNSQAKPSACDGLARQPEEVVLQASVSSYHLFRDVAEVTAFRGSLLSWYDQEKRDLPWRRRAEDEMDLDRRAYAVWVSEVMLQQTQVATVINYYTGWMQKWPTLQDLASASLEEVNQLWAGLGYYSRGRRLQEGARKVVEELGGHMPRTAETLQQLLPGVGRYTAGAIASIAFWQATGVVDGNVARVLCRVRAIGADPSSTLVSQQLWGLAQQLVDPARPGDFNQAAMELGATVCTPQRPLCSQCPVESLCRARQRVEQEQLLASGSLSGSPDVEECAPNTGQCHLCLPPSEPWDQTLGVVNFPRKASRKPPREESSATCVLEQPGALGAQILLVQRPNSGLLAGLWEFPSVTWEPSEQLQRKALLQELQRWAGPLPATHLRHLGEVVHTFSHIKLTYQVYGLALEGQTPVTTVPPGARWLTQEEFHTAAVSTAMKKVFRVYQGQQPGTCMGSKRSQVSSPCSRKKPRMGQQVLDNFFRSHISTDAHSLNSAAQ [G201W] | -0.353 |
| MRKPRAAVGSGHRKQAASQEGRQKHAKNNSQAKPSACDGLARQPEEVVLQASVSSYHLFRDVAEVTAFRGSLLSWYDQEKRDLPWRRRAEDEMDLDRRAYAVWVSEVMLQQTQVATVINYYTGWMQKWPTLQDLASASLEEVNQLWAGLGYYSRGRRLQEGARKVVEELGGHMPRTAETLQQLLPGVGRYTAGAIASIAFVQATGVVDGNVARVLCRVRAIGADPSSTLVSQQLWGLAQQLVDPARPGDFNQAAMELGATVCTPQRPLCSQCPVESLCRARQRVEQEQLLASGSLSGSPDVEECAPNTGQCHLCLPPSEPWDQTLGVVNFPRKASRKPPREESSATCVLEQPGALGAQILLVQRPNSGLLAGLWEFPSVTWEPSEQLQRKALLQELQRWAGPLPATHLRHLGEVVHTFSHIKLTYQVYGLALEGQTPVTTVPPGARWLTQEEFHTAAVSTAMKKVFRVYQGQQPGTCMGSKRSQVSSPCSRKKPRMGQQVLDNFFRSHISTDAHSLNSAAQ [G201V] | -0.331 |
| MRKPRAAVGSGHRKQAASQEGRQKHAKNNSQAKPSACDGLARQPEEVVLQASVSSYHLFRDVAEVTAFRGSLLSWYDQEKRDLPWRRRAEDEMDLDRRAYAVWVSEVMLQQTQVATVINYYTGWMQKWPTLQDLASASLEEVNQLWAGLGYYSRGRRLQEGARKVVEELGGHMPRTAETLQQLLPGVGRYTAGAIASIAFYQATGVVDGNVARVLCRVRAIGADPSSTLVSQQLWGLAQQLVDPARPGDFNQAAMELGATVCTPQRPLCSQCPVESLCRARQRVEQEQLLASGSLSGSPDVEECAPNTGQCHLCLPPSEPWDQTLGVVNFPRKASRKPPREESSATCVLEQPGALGAQILLVQRPNSGLLAGLWEFPSVTWEPSEQLQRKALLQELQRWAGPLPATHLRHLGEVVHTFSHIKLTYQVYGLALEGQTPVTTVPPGARWLTQEEFHTAAVSTAMKKVFRVYQGQQPGTCMGSKRSQVSSPCSRKKPRMGQQVLDNFFRSHISTDAHSLNSAAQ [G201Y] | -0.227 |
| MRKPRAAVGSGHRKQAASQEGRQKHAKNNSQAKPSACDGLARQPEEVVLQASVSSYHLFRDVAEVTAFRGSLLSWYDQEKRDLPWRRRAEDEMDLDRRAYAVWVSEVMLQQTQVATVINYYTGWMQKWPTLQDLASASLEEVNQLWAGLGYYSRGRRLQEGARKVVEELGGHMPRTAETLQQLLPGVGRYTAGAIASIAFGGATGVVDGNVARVLCRVRAIGADPSSTLVSQQLWGLAQQLVDPARPGDFNQAAMELGATVCTPQRPLCSQCPVESLCRARQRVEQEQLLASGSLSGSPDVEECAPNTGQCHLCLPPSEPWDQTLGVVNFPRKASRKPPREESSATCVLEQPGALGAQILLVQRPNSGLLAGLWEFPSVTWEPSEQLQRKALLQELQRWAGPLPATHLRHLGEVVHTFSHIKLTYQVYGLALEGQTPVTTVPPGARWLTQEEFHTAAVSTAMKKVFRVYQGQQPGTCMGSKRSQVSSPCSRKKPRMGQQVLDNFFRSHISTDAHSLNSAAQ [Q202G] | -0.395 |
| MRKPRAAVGSGHRKQAASQEGRQKHAKNNSQAKPSACDGLARQPEEVVLQASVSSYHLFRDVAEVTAFRGSLLSWYDQEKRDLPWRRRAEDEMDLDRRAYAVWVSEVMLQQTQVATVINYYTGWMQKWPTLQDLASASLEEVNQLWAGLGYYSRGRRLQEGARKVVEELGGHMPRTAETLQQLLPGVGRYTAGAIASIAFGCATGVVDGNVARVLCRVRAIGADPSSTLVSQQLWGLAQQLVDPARPGDFNQAAMELGATVCTPQRPLCSQCPVESLCRARQRVEQEQLLASGSLSGSPDVEECAPNTGQCHLCLPPSEPWDQTLGVVNFPRKASRKPPREESSATCVLEQPGALGAQILLVQRPNSGLLAGLWEFPSVTWEPSEQLQRKALLQELQRWAGPLPATHLRHLGEVVHTFSHIKLTYQVYGLALEGQTPVTTVPPGARWLTQEEFHTAAVSTAMKKVFRVYQGQQPGTCMGSKRSQVSSPCSRKKPRMGQQVLDNFFRSHISTDAHSLNSAAQ [Q202C] | 0.0136 |
| MRKPRAAVGSGHRKQAASQEGRQKHAKNNSQAKPSACDGLARQPEEVVLQASVSSYHLFRDVAEVTAFRGSLLSWYDQEKRDLPWRRRAEDEMDLDRRAYAVWVSEVMLQQTQVATVINYYTGWMQKWPTLQDLASASLEEVNQLWAGLGYYSRGRRLQEGARKVVEELGGHMPRTAETLQQLLPGVGRYTAGAIASIAFGAATGVVDGNVARVLCRVRAIGADPSSTLVSQQLWGLAQQLVDPARPGDFNQAAMELGATVCTPQRPLCSQCPVESLCRARQRVEQEQLLASGSLSGSPDVEECAPNTGQCHLCLPPSEPWDQTLGVVNFPRKASRKPPREESSATCVLEQPGALGAQILLVQRPNSGLLAGLWEFPSVTWEPSEQLQRKALLQELQRWAGPLPATHLRHLGEVVHTFSHIKLTYQVYGLALEGQTPVTTVPPGARWLTQEEFHTAAVSTAMKKVFRVYQGQQPGTCMGSKRSQVSSPCSRKKPRMGQQVLDNFFRSHISTDAHSLNSAAQ [Q202A] | 0.00201 |
| MRKPRAAVGSGHRKQAASQEGRQKHAKNNSQAKPSACDGLARQPEEVVLQASVSSYHLFRDVAEVTAFRGSLLSWYDQEKRDLPWRRRAEDEMDLDRRAYAVWVSEVMLQQTQVATVINYYTGWMQKWPTLQDLASASLEEVNQLWAGLGYYSRGRRLQEGARKVVEELGGHMPRTAETLQQLLPGVGRYTAGAIASIAFGDATGVVDGNVARVLCRVRAIGADPSSTLVSQQLWGLAQQLVDPARPGDFNQAAMELGATVCTPQRPLCSQCPVESLCRARQRVEQEQLLASGSLSGSPDVEECAPNTGQCHLCLPPSEPWDQTLGVVNFPRKASRKPPREESSATCVLEQPGALGAQILLVQRPNSGLLAGLWEFPSVTWEPSEQLQRKALLQELQRWAGPLPATHLRHLGEVVHTFSHIKLTYQVYGLALEGQTPVTTVPPGARWLTQEEFHTAAVSTAMKKVFRVYQGQQPGTCMGSKRSQVSSPCSRKKPRMGQQVLDNFFRSHISTDAHSLNSAAQ [Q202D] | 0.0238 |
| MRKPRAAVGSGHRKQAASQEGRQKHAKNNSQAKPSACDGLARQPEEVVLQASVSSYHLFRDVAEVTAFRGSLLSWYDQEKRDLPWRRRAEDEMDLDRRAYAVWVSEVMLQQTQVATVINYYTGWMQKWPTLQDLASASLEEVNQLWAGLGYYSRGRRLQEGARKVVEELGGHMPRTAETLQQLLPGVGRYTAGAIASIAFGHATGVVDGNVARVLCRVRAIGADPSSTLVSQQLWGLAQQLVDPARPGDFNQAAMELGATVCTPQRPLCSQCPVESLCRARQRVEQEQLLASGSLSGSPDVEECAPNTGQCHLCLPPSEPWDQTLGVVNFPRKASRKPPREESSATCVLEQPGALGAQILLVQRPNSGLLAGLWEFPSVTWEPSEQLQRKALLQELQRWAGPLPATHLRHLGEVVHTFSHIKLTYQVYGLALEGQTPVTTVPPGARWLTQEEFHTAAVSTAMKKVFRVYQGQQPGTCMGSKRSQVSSPCSRKKPRMGQQVLDNFFRSHISTDAHSLNSAAQ [Q202H] | -0.0825 |
| MRKPRAAVGSGHRKQAASQEGRQKHAKNNSQAKPSACDGLARQPEEVVLQASVSSYHLFRDVAEVTAFRGSLLSWYDQEKRDLPWRRRAEDEMDLDRRAYAVWVSEVMLQQTQVATVINYYTGWMQKWPTLQDLASASLEEVNQLWAGLGYYSRGRRLQEGARKVVEELGGHMPRTAETLQQLLPGVGRYTAGAIASIAFGIATGVVDGNVARVLCRVRAIGADPSSTLVSQQLWGLAQQLVDPARPGDFNQAAMELGATVCTPQRPLCSQCPVESLCRARQRVEQEQLLASGSLSGSPDVEECAPNTGQCHLCLPPSEPWDQTLGVVNFPRKASRKPPREESSATCVLEQPGALGAQILLVQRPNSGLLAGLWEFPSVTWEPSEQLQRKALLQELQRWAGPLPATHLRHLGEVVHTFSHIKLTYQVYGLALEGQTPVTTVPPGARWLTQEEFHTAAVSTAMKKVFRVYQGQQPGTCMGSKRSQVSSPCSRKKPRMGQQVLDNFFRSHISTDAHSLNSAAQ [Q202I] | -0.0774 |
| MRKPRAAVGSGHRKQAASQEGRQKHAKNNSQAKPSACDGLARQPEEVVLQASVSSYHLFRDVAEVTAFRGSLLSWYDQEKRDLPWRRRAEDEMDLDRRAYAVWVSEVMLQQTQVATVINYYTGWMQKWPTLQDLASASLEEVNQLWAGLGYYSRGRRLQEGARKVVEELGGHMPRTAETLQQLLPGVGRYTAGAIASIAFGEATGVVDGNVARVLCRVRAIGADPSSTLVSQQLWGLAQQLVDPARPGDFNQAAMELGATVCTPQRPLCSQCPVESLCRARQRVEQEQLLASGSLSGSPDVEECAPNTGQCHLCLPPSEPWDQTLGVVNFPRKASRKPPREESSATCVLEQPGALGAQILLVQRPNSGLLAGLWEFPSVTWEPSEQLQRKALLQELQRWAGPLPATHLRHLGEVVHTFSHIKLTYQVYGLALEGQTPVTTVPPGARWLTQEEFHTAAVSTAMKKVFRVYQGQQPGTCMGSKRSQVSSPCSRKKPRMGQQVLDNFFRSHISTDAHSLNSAAQ [Q202E] | -0.0729 |
| MRKPRAAVGSGHRKQAASQEGRQKHAKNNSQAKPSACDGLARQPEEVVLQASVSSYHLFRDVAEVTAFRGSLLSWYDQEKRDLPWRRRAEDEMDLDRRAYAVWVSEVMLQQTQVATVINYYTGWMQKWPTLQDLASASLEEVNQLWAGLGYYSRGRRLQEGARKVVEELGGHMPRTAETLQQLLPGVGRYTAGAIASIAFGFATGVVDGNVARVLCRVRAIGADPSSTLVSQQLWGLAQQLVDPARPGDFNQAAMELGATVCTPQRPLCSQCPVESLCRARQRVEQEQLLASGSLSGSPDVEECAPNTGQCHLCLPPSEPWDQTLGVVNFPRKASRKPPREESSATCVLEQPGALGAQILLVQRPNSGLLAGLWEFPSVTWEPSEQLQRKALLQELQRWAGPLPATHLRHLGEVVHTFSHIKLTYQVYGLALEGQTPVTTVPPGARWLTQEEFHTAAVSTAMKKVFRVYQGQQPGTCMGSKRSQVSSPCSRKKPRMGQQVLDNFFRSHISTDAHSLNSAAQ [Q202F] | -0.471 |
